Assay results taken from the Human Domainome abundance scans (Beltran et al. 2025).
± gives the uncertainty stated by the source.

Experiment: abundance fitness (aPCA) (normalised: wild type 0, dead -1); higher = more abundant; growth selection in yeast, the domain comes from the species named
Conditions: Homo sapiens

“BAG family molecular chaperone regulator 3 N43K, O95817” and “BAG family molecular chaperone regulator 3 N43L, O95817” are within error of each other in abundance fitness: -0.648 ± 0.24 for the first, -0.629 ± 0.12 for the second.

“BAG family molecular chaperone regulator 3 N43P, O95817” and “BAG family molecular chaperone regulator 3 N43Q, O95817” are within error of each other in abundance fitness: -0.42 ± 0.3 for the first, -0.435 ± 0.43 for the second.

Compared with “BAG family molecular chaperone regulator 3 N43R, O95817”, “BAG family molecular chaperone regulator 3 N43S, O95817” is higher in abundance fitness: -0.549 ± 0.12 for the first, 0.004 ± 0.2 for the second.

“BAG family molecular chaperone regulator 3 N43T, O95817” and “BAG family molecular chaperone regulator 3 N43V, O95817” are within error of each other in abundance fitness: -0.416 ± 0.085 for the first, -0.418 ± 0.12 for the second.

“BAG family molecular chaperone regulator 3 N43W, O95817” and “BAG family molecular chaperone regulator 3 N43Y, O95817” are within error of each other in abundance fitness: -0.415 ± 0.42 for the first, -0.366 ± 0.4 for the second.

“BAG family molecular chaperone regulator 3 N50A, O95817” and “BAG family molecular chaperone regulator 3 N50C, O95817” are within error of each other in abundance fitness: 0.249 ± 0.15 for the first, 0.032 ± 0.13 for the second.

“BAG family molecular chaperone regulator 3 N50D, O95817” and “BAG family molecular chaperone regulator 3 N50E, O95817” are within error of each other in abundance fitness: -0.126 ± 0.2 for the first, 0.063 ± 0.096 for the second.

Compared with “BAG family molecular chaperone regulator 3 N50F, O95817”, “BAG family molecular chaperone regulator 3 N50G, O95817” is lower in abundance fitness: 0.181 ± 0.11 for the first, -0.358 ± 0.13 for the second.

Going from “BAG family molecular chaperone regulator 3 N50H, O95817” to “BAG family molecular chaperone regulator 3 N50I, O95817”, the abundance fitness rises from -0.166 ± 0.19 to 0.656 ± 0.23.

“BAG family molecular chaperone regulator 3 N50K, O95817” and “BAG family molecular chaperone regulator 3 N50L, O95817” are within error of each other in abundance fitness: -0.176 ± 0.11 for the first, -0.181 ± 0.17 for the second.

“BAG family molecular chaperone regulator 3 N50M, O95817” and “BAG family molecular chaperone regulator 3 N50P, O95817” are within error of each other in abundance fitness: -0.255 ± 0.086 for the first, -0.353 ± 0.31 for the second.

“BAG family molecular chaperone regulator 3 N50Q, O95817” and “BAG family molecular chaperone regulator 3 N50R, O95817” are within error of each other in abundance fitness: -0.176 ± 0.1 for the first, -0.034 ± 0.13 for the second.

“BAG family molecular chaperone regulator 3 N50S, O95817” and “BAG family molecular chaperone regulator 3 N50T, O95817” are within error of each other in abundance fitness: -0.26 ± 0.085 for the first, -0.435 ± 0.11 for the second.

“BAG family molecular chaperone regulator 3 N50W, O95817” and “BAG family molecular chaperone regulator 3 N50Y, O95817” are within error of each other in abundance fitness: 0.441 ± 0.15 for the first, 0.235 ± 0.16 for the second.

“BAG family molecular chaperone regulator 3 P21A, O95817” and “BAG family molecular chaperone regulator 3 P21C, O95817” are within error of each other in abundance fitness: 0.383 ± 0.085 for the first, 0.548 ± 0.1 for the second.

First: BAG family molecular chaperone regulator 3 P21D, O95817
Second: BAG family molecular chaperone regulator 3 P21E, O95817
The abundance fitness of the first is lower: -0.124 ± 0.16 for the first, 0.307 ± 0.12 for the second.

Going from “BAG family molecular chaperone regulator 3 P21F, O95817” to “BAG family molecular chaperone regulator 3 P21G, O95817”, the abundance fitness rises from 0.097 ± 0.21 to 0.43 ± 0.057.

Going from “BAG family molecular chaperone regulator 3 P21H, O95817” to “BAG family molecular chaperone regulator 3 P21K, O95817”, the abundance fitness rises from -0.103 ± 0.26 to 0.439 ± 0.059.

Compared with “BAG family molecular chaperone regulator 3 P21L, O95817”, “BAG family molecular chaperone regulator 3 P21M, O95817” is higher in abundance fitness: -0.112 ± 0.094 for the first, 0.673 ± 0.18 for the second.

“BAG family molecular chaperone regulator 3 P21N, O95817” and “BAG family molecular chaperone regulator 3 P21Q, O95817” are within error of each other in abundance fitness: -0.081 ± 0.21 for the first, 0.192 ± 0.063 for the second.

“BAG family molecular chaperone regulator 3 P21R, O95817” and “BAG family molecular chaperone regulator 3 P21S, O95817” are within error of each other in abundance fitness: 0.382 ± 0.081 for the first, 0.349 ± 0.089 for the second.

First: BAG family molecular chaperone regulator 3 P21V, O95817
Second: BAG family molecular chaperone regulator 3 P21W, O95817
The abundance fitness of the first is higher: 0.443 ± 0.063 for the first, -0.543 ± 0.086 for the second.

“BAG family molecular chaperone regulator 3 P21Y, O95817” and “BAG family molecular chaperone regulator 3 P23A, O95817” are within error of each other in abundance fitness: -0.152 ± 0.21 for the first, -0.378 ± 0.16 for the second.

First: BAG family molecular chaperone regulator 3 P23C, O95817
Second: BAG family molecular chaperone regulator 3 P23E, O95817
The abundance fitness of the first is lower: -0.932 ± 0.19 for the first, -0.544 ± 0.14 for the second.

“BAG family molecular chaperone regulator 3 P23F, O95817” and “BAG family molecular chaperone regulator 3 P23G, O95817” are within error of each other in abundance fitness: -0.697 ± 0.44 for the first, -0.622 ± 0.18 for the second.

Compared with “BAG family molecular chaperone regulator 3 P23H, O95817”, “BAG family molecular chaperone regulator 3 P23I, O95817” is lower in abundance fitness: 0.173 ± 0.23 for the first, -0.612 ± 0.22 for the second.

“BAG family molecular chaperone regulator 3 P23K, O95817” and “BAG family molecular chaperone regulator 3 P23L, O95817” are within error of each other in abundance fitness: -0.604 ± 0.094 for the first, -0.858 ± 0.2 for the second.

“BAG family molecular chaperone regulator 3 P23M, O95817” and “BAG family molecular chaperone regulator 3 P23Q, O95817” are within error of each other in abundance fitness: -0.772 ± 0.34 for the first, -0.83 ± 0.33 for the second.

“BAG family molecular chaperone regulator 3 P23S, O95817” and “BAG family molecular chaperone regulator 3 P23W, O95817” are within error of each other in abundance fitness: -0.864 ± 0.26 for the first, -0.692 ± 0.095 for the second.

“BAG family molecular chaperone regulator 3 P23Y, O95817” and “BAG family molecular chaperone regulator 3 P24A, O95817” are within error of each other in abundance fitness: -0.54 ± 0.29 for the first, -0.464 ± 0.096 for the second.

“BAG family molecular chaperone regulator 3 P24C, O95817” and “BAG family molecular chaperone regulator 3 P24D, O95817” are within error of each other in abundance fitness: -0.489 ± 0.29 for the first, -0.597 ± 0.36 for the second.

“BAG family molecular chaperone regulator 3 P24F, O95817” and “BAG family molecular chaperone regulator 3 P24G, O95817” are within error of each other in abundance fitness: -0.383 ± 0.31 for the first, -0.77 ± 0.22 for the second.

First: BAG family molecular chaperone regulator 3 P24K, O95817
Second: BAG family molecular chaperone regulator 3 P24M, O95817
The abundance fitness of the first is higher: 0.269 ± 0.16 for the first, -0.662 ± 0.21 for the second.

“BAG family molecular chaperone regulator 3 P24N, O95817” and “BAG family molecular chaperone regulator 3 P24Q, O95817” are within error of each other in abundance fitness: 0.135 ± 0.24 for the first, -0.21 ± 0.14 for the second.

Going from “BAG family molecular chaperone regulator 3 P24R, O95817” to “BAG family molecular chaperone regulator 3 P24S, O95817”, the abundance fitness rises from -0.037 ± 0.085 to 0.456 ± 0.099.

Compared with “BAG family molecular chaperone regulator 3 P24T, O95817”, “BAG family molecular chaperone regulator 3 P24V, O95817” is lower in abundance fitness: -0.036 ± 0.086 for the first, -0.784 ± 0.23 for the second.

“BAG family molecular chaperone regulator 3 P24W, O95817” and “BAG family molecular chaperone regulator 3 P24Y, O95817” are within error of each other in abundance fitness: -0.659 ± 0.21 for the first, -0.31 ± 0.28 for the second.

“BAG family molecular chaperone regulator 3 P32A, O95817” and “BAG family molecular chaperone regulator 3 P32D, O95817” are within error of each other in abundance fitness: -0.735 ± 0.17 for the first, -0.64 ± 0.39 for the second.

“BAG family molecular chaperone regulator 3 P32E, O95817” and “BAG family molecular chaperone regulator 3 P32F, O95817” are within error of each other in abundance fitness: -0.285 ± 0.13 for the first, -0.511 ± 0.47 for the second.

First: BAG family molecular chaperone regulator 3 P32G, O95817
Second: BAG family molecular chaperone regulator 3 P32K, O95817
The abundance fitness of the first is higher: 0.335 ± 0.076 for the first, -0.002 ± 0.068 for the second.

“BAG family molecular chaperone regulator 3 P32L, O95817” and “BAG family molecular chaperone regulator 3 P32M, O95817” are within error of each other in abundance fitness: -0.458 ± 0.12 for the first, -0.766 ± 0.23 for the second.

“BAG family molecular chaperone regulator 3 P32N, O95817” and “BAG family molecular chaperone regulator 3 P32Q, O95817” are within error of each other in abundance fitness: 0.039 ± 0.29 for the first, -0.205 ± 0.28 for the second.

“BAG family molecular chaperone regulator 3 P32R, O95817” and “BAG family molecular chaperone regulator 3 P32S, O95817” are within error of each other in abundance fitness: 0.039 ± 0.074 for the first, -0.054 ± 0.087 for the second.

Going from “BAG family molecular chaperone regulator 3 P32T, O95817” to “BAG family molecular chaperone regulator 3 P32V, O95817”, the abundance fitness falls from 0.423 ± 0.071 to -0.268 ± 0.13.

“BAG family molecular chaperone regulator 3 P32W, O95817” and “BAG family molecular chaperone regulator 3 P32Y, O95817” are within error of each other in abundance fitness: -0.316 ± 0.095 for the first, -0.23 ± 0.38 for the second.

Substance “BAG family molecular chaperone regulator 3 P37A, O95817” has an abundance fitness of 0.4 ± 0.12.
